Where a chain is given by its changes, count along the chain named.
What was measured:
Settings in all cases: tags: expressed in yeast
[1] = molecular target: T1, midkine (full-length) (Homo sapiens, UniProt P21741 P21741:23-143); assay: cell_activity; 500 nM RNA
T1 sequence: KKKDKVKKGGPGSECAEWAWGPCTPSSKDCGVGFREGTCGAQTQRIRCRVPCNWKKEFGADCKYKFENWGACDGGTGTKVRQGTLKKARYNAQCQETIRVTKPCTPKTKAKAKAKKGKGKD
Protocol: (§1) Chem. 276 (19), 15868-15875, 2001). […] 30 μL of 1.5 μM midkine was applied to the outer surface of the membrane of Chemotaxicell (membrane pore diameter 8 μm, manufactured by Kurabo) to immobilize the midkine to the outer surface of the membrane. The midkine-immobilized Chemotaxicell was placed on a 24-well culture plate containing 500 μL of a medium (supplemented with 0.3% bovine serum albumin, Dulbecco's Modified Eagle's medium) supplemented with each RNA aptamer added thereto at 100 nM. 200 μL of UMR106 cells were placed in the inner layer of the Chemotaxicell chamber at a density of 1×10⁶ cells/mL, and cultured at 37° C. for 4 hours. The cells remaining in the inner layer of the Chemotaxicell chamber were removed, and the cells that had infiltrated and adhered to the midkine-applied surface were fixed with methanol. The Chemotaxicell chamber was immersed in a 1% aqueous solution of Crystal Violet for 30 minutes to stain the cells. After the Chemotaxicell chamber was washed with distilled water and dried, the pigment was extracted with a mixed solution of 200 μL of 1% SDS and 1% triton X100. 150 μL of the extract was transferred to a 96-well microplate, and its absorbance at 590 nm was determined.
(§2) The aptamer shown by SEQ ID NO:4 is 77 nucleotides long, having the 2′ position of the ribose of the pyrimidine nucleotide thereof fluoro-substituted. To enable the chemical synthesis, to reduce the toxicity, and to improve the stability in the blood, miniaturization and stabilization of this aptamer were performed. The operations of miniaturization and stabilization were performed on the basis of the secondary structure estimated by the MFOLD program, and the activity was evaluated by a cell migration inhibition experiment. In the cell migration inhibition experiment, the RNA concentration was 100 nM or 500 nM. Since some errors occur in experimental results depending on cell condition, a previously assayed sample was included as a positive control in each measurement.

[2] = molecular target: T1, midkine (full-length); assay: cell_activity; UMR106 migration inhibition, 500 nM RNA
Protocol: as §1, §2

[3] = molecular target: T1, midkine (full-length); assay: cell_activity; 100 nM RNA
Protocol: (§3) 30 μL of 1.5 μM midkine was applied to the outer surface of the membrane of Chemotaxicell (membrane pore diameter 8 μm, manufactured by Kurabo) to immobilize the midkine to the outer surface of the membrane. The midkine-immobilized Chemotaxicell was placed on a 24-well culture plate containing 500 μL of a medium (supplemented with 0.3% bovine serum albumin, Dulbecco's Modified Eagle's medium) supplemented with each RNA aptamer added thereto at 100 nM. 200 μL of UMR106 cells were placed in the inner layer of the Chemotaxicell chamber at a density of 1×10⁶ cells/mL, and cultured at 37° C. for 4 hours. The cells remaining in the inner layer of the Chemotaxicell chamber were removed, and the cells that had infiltrated and adhered to the midkine-applied surface were fixed with methanol. The Chemotaxicell chamber was immersed in a 1% aqueous solution of Crystal Violet for 30 minutes to stain the cells. After the Chemotaxicell chamber was washed with distilled water and dried, the pigment was extracted with a mixed solution of 200 μL of 1% SDS and 1% triton X100. 150 μL of the extract was transferred to a 96-well microplate, and its absorbance at 590 nm was determined.
as §2, with “NO:5” for “NO:4”, “2′-position” for “2′ position”, “nucleotide” for “nucleotide thereof”, “The RNA concentration in” for “In”, “experiment” for “experiment, the RNA concentration”

[4] = molecular target: T1, midkine (full-length); assay: cell_activity; UMR106 migration inhibition, 500 nM RNA; remark: listed apart in the source
Protocol: as §3
as §2, with “NO:5” for “NO:4”, “2′-position” for “2′ position”, “nucleotide” for “nucleotide thereof”, “The RNA concentration in” for “In”, “experiment” for “experiment, the RNA concentration”

Binder: GGGAGAGGAACGACGAGGAGUAGCCGGAAAGAAGGCGGCGUC (ssRNA, 2'-F pyrimidines) [SEQ ID NO:20]
- activity [1]: 97 % of SEQ 4 inhibition

B1: SEQ ID NO:20-11 (ssRNA)
RNA: GGGAGAGGAACGACGAGGAGUAGCCGGAAAGAAGGCGGCGUC
modifications: 2'-F pyrimidines; 20-5 pattern plus 2'-OMe: c(F)g(M)a(M)c(F), gga(M)aa(M)gaagg, c(F)g(M)g(M)c(F)g(M)u(F)c(F)
- activity [2]: 76 % of SEQ ID NO:4

B2: SEQ ID NO:20-5 (ssRNA)
RNA: B1 RNA
modifications: 2'-F pyrimidines; 20-1 pattern (2'-OMe 5' single strand) plus 2'-OMe A in bulge: ga(M)gga(M)gu(F)a(M)g
- activity [2]: 88 % of SEQ ID NO:4

B3: SEQ ID NO:20-2 (ssRNA)
RNA: B1 RNA
modifications: 2'-F pyrimidines; 2'-OMe purines of first stem: gggagaggaac(F)g(M)a(M)c(F)g(M)aggagu(F)agc(F)c(F)ggaaagaaggc(F)ggc(F)g(M)u(F)c(F)
- activity [2]: 84 % of SEQ ID NO:4

Binder: GGGAGAGGAACGACGAGGAGUAGCCGGAAAGAAGGCGGCGUC (ssRNA, 2'-F pyrimidines; 2'-OMe G in loop: c(F)c(F)g(M)g(M)aaag(M)aagg) [SEQ ID NO:20-4]
- activity [2]: 60 % of SEQ ID NO:4

B4: SEQ ID NO:20-13 (ssRNA)
RNA: B1 RNA
modifications: 2'-F pyrimidines; 20-5 pattern plus 2'-OMe: c(F)g(M)a(M)c(F), gga(M)aa(M)gaag(M)g, 3' g(M)u(F)c(F)
- activity [2]: 89 % of SEQ ID NO:4

B5: SEQ ID NO:20-10 (ssRNA)
RNA: B1 RNA
modifications: 2'-F pyrimidines; 20-5 pattern plus 2'-OMe near 3' end: ggc(F)g(M)g(M)c(F)gu(F)c(F)
- activity [2]: 86 % of SEQ ID NO:4

Binder: GGGAGAGGAACGACGAGGAGUAGCCGGAAAGAAGGCGGCGUC (ssRNA, 2'-F pyrimidines; 2'-OMe on all purines of the 5' single-stranded part g1-a10) [SEQ ID NO:20-1]
- activity [2]: 109 % of SEQ ID NO:4

Binder: GGGAGAGGAACGACGAGGAGUAGCCGGAAAGAAGGCGGCGUC (ssRNA, 2'-F pyrimidines; 20-1 pattern plus 2'-OMe A in loop: gga(M)aa(M)gaagg) [SEQ ID NO:20-7]
- activity [2]: 88 % of SEQ ID NO:4

B6: SEQ ID NO:20-3 (ssRNA)
RNA: B1 RNA
modifications: 2'-F pyrimidines; 2'-OMe purines of second stem: gggagaggaac(F)gac(F)gaggagu(F)ag(M)c(F)c(F)ggaaagaag(M)g(M)c(F)ggc(F)gu(F)c(F)
- activity [2]: 60 % of SEQ ID NO:4

B7: SEQ ID NO:20-12 (ssRNA)
RNA: B1 RNA
modifications: 2'-F pyrimidines; 20-5 pattern plus 2'-OMe: c(F)g(M)a(M)c(F), gga(M)aa(M)g(M)aagg, 3' g(M)u(F)c(F)
- activity [2]: 53 % of SEQ ID NO:4

B8: SEQ ID NO:20-9 (ssRNA)
RNA: B1 RNA
modifications: 2'-F pyrimidines; 20-5 pattern plus 2'-OMe first stem: c(F)g(M)a(M)c(F)g and 3' g(M)u(F)c(F)
- activity [2]: 130 % of SEQ ID NO:4

Binder: GGGAGAGGAACGACGAGGAGUAGCCGGAAAGAAGGCGGCGUC (ssRNA, 2'-F pyrimidines; 20-1 pattern plus 2'-OMe G in bulge: gag(M)g(M)ag(M)u(F)ag) [SEQ ID NO:20-6]
- activity [2]: 69 % of SEQ ID NO:4

Binder: GGGAGAGGAACGACGAGGAGUAGCCGGAAAGAAGGCGGCGUC (ssRNA, 2'-F pyrimidines; 20-5 pattern plus 2'-OMe A in loop: gga(M)aa(M)gaagg) [SEQ ID NO:20-8]
- activity [2]: 99 % of SEQ ID NO:4

B9: SEQ ID NO:36 (ssRNA)
RNA: GGGAGAGGAGAAGAGGAAGUGCACAGGGGUUGGUGUCGGGUGCACAGUAUAAG
modifications: 2'-F pyrimidines
- activity [3]: 91 % of SEQ 5 inhibition

B10: SEQ ID NO:36-1 (ssRNA)
RNA: B9 RNA
modifications: 2'-F pyrimidines; 2'-OMe on all of 5' single strand (nt 1-18)
- activity [3]: 60 % of SEQ 5 inhibition

B11: SEQ ID NO:32 (ssRNA)
RNA: GGGAGAGGAGAAGAGGAAGUGUGCACAGGGGUUGGUGUCGGGUGCAUACAGUAUAAG
modifications: 2'-F pyrimidines
- activity [3]: 100 % of SEQ 5 inhibition

B12: SEQ ID NO:35 (ssRNA)
RNA: GGGAGAGGAGAAGAGGAAGUGUGCACAGGGGUUGGUGUCGGGUGCAUACAG
modifications: 2'-F pyrimidines
- activity [3]: 90 % of SEQ 5 inhibition

Binder: GGGACGAGGAGUAGCCGGAAAGAAGGCGGCGUC (ssRNA, 2'-F pyrimidines) [SEQ ID NO:22]
- activity [1]: 70 % of SEQ 4 inhibition

B13: SEQ ID NO:61-3 (ssRNA)
RNA: GGGAAGGAGGAAGUGCACAGGGGUUGGUGUCGGGUGCAC
modifications: g(F)g(F)g(F)a(M)a(M)g(F)g(F)a(M)g(F)g(F)a(M)a(M)g(M)u(F)g(M)c(F)a(M)c(F)a(M)g(F)g(M)g(M)g(M)u(F)u(F)g(M)g(M)u(F)g(M)u(F)c(F)g(F)g(F)g(M)u(F)g(M)c(F)a(M)c(F); M 2'-OMe, F 2'-F
- activity [4]: 80 % of SEQ ID NO:40

Binder: GGGAAGGAGGAAGUGCACAGGGGUUGGUGUCGGGUGCAC (ssRNA, as 61-4 plus 5' branched PEG40k and 3' idT) [SEQ ID NO:61-5]
- activity [4]: 40 % of SEQ ID NO:40

B14: SEQ ID NO:61-4 (ssRNA)
RNA: B13 RNA
modifications: ggga(M)a(M)gga(M)gga(M)a(M)g(M)u(F)g(M)c(F)a(M)c(F)aggg(M)g(M)u(F)u(F)g(M)g(M)u(F)g(M)u(F)c(F)gggu(F)g(M)c(F)a(M)c(F); M 2'-OMe, F 2'-F
- activity [4]: 86 % of SEQ ID NO:40

Binder: GGGAAGGAGGAAGUGCACAGGGGUUGGUGUCGGGUGCAC (ssRNA, as 61-4 plus PEG30k at both ends) [SEQ ID NO:61-6]
- activity [4]: 57 % of SEQ ID NO:40

B15: SEQ ID NO:33 (ssRNA)
RNA: GGAGAAGAGGAAGUGUGCACAGGGGUUGGUGUCGGGUGCAUACAGUAUAAGAUAGAGGACA
modifications: 2'-F pyrimidines
- activity [3]: 40 % of SEQ 5 inhibition

B16: SEQ ID NO:41 (ssRNA)
RNA: GGGAAGGAGAAGAGGAAGUGCACAGGGGUUGGUGUCGGGUGCACAGUAUAAG
modifications: 2'-F pyrimidines
- activity [3]: 97 % of SEQ 5 inhibition

B17: SEQ ID NO:42 (ssRNA)
RNA: B16 RNA with A5G, G6A, A8G, G9A, A10G
modifications: 2'-F pyrimidines
- activity [3]: 110 % of SEQ 5 inhibition

B18: SEQ ID NO:43 (ssRNA)
RNA: GGGAGAGGAGAAGAGGAGUGCACAGGGGUUGGUGUCGGGUGCACAGUAUAAG
modifications: 2'-F pyrimidines
- activity [3]: 42 % of SEQ 5 inhibition

B19: SEQ ID NO:30 (ssRNA)
RNA: GGAGAAGAGGAAGUGUGCACAGGGGUUGGUGUCGGGUGCAUACAGUAUAAGAUAGAGGACAGGAAUGAGGA
modifications: 2'-F pyrimidines
- activity [3]: 44 % of SEQ 5 inhibition

Binder: GGGAGAGGAACGACGAGGAGUAGCCGAAAGGCGGCGUC (ssRNA, 2'-F pyrimidines) [SEQ ID NO:23]
- activity [1]: 66 % of SEQ 4 inhibition

Binder: GGGAGAGGAACGACGAGGAGUAGCCUUCGGGCGGCGUC (ssRNA, 2'-F pyrimidines) [SEQ ID NO:24]
- activity [1]: 65 % of SEQ 4 inhibition

Binder: GGGAGAGGAACGACGAGAACAGCCGGAAAGAAGGCGGCGUC (ssRNA, 2'-F pyrimidines) [SEQ ID NO:25]
- activity [1]: 81 % of SEQ 4 inhibition

Binder: GGGAGAGGAACGACGAGGGUAGCCGGAAAGAAGGCGGCGUC (ssRNA, 2'-F pyrimidines) [SEQ ID NO:27]
- activity [1]: 78 % of SEQ 4 inhibition

Binder: GGGAGAGGAACGACGAGAGUAGCCGGAAAGAAGGCGGCGUC (ssRNA, 2'-F pyrimidines) [SEQ ID NO:26]
- activity [1]: 18 % of SEQ 4 inhibition

B20: SEQ ID NO:31 (ssRNA)
RNA: GGGAGAGGAGAAGAGGAAGUGUGCACAGGGGUUGGUGUCGGGUGCAUACAGUAUAAGAUAGAGGACA
modifications: 2'-F pyrimidines
- activity [3]: 94 % of SEQ 5 inhibition

Binder: GGGAGAGGAACGUACGAGGAGUAGCCGGAAAGAAGGCGGCGUAC (ssRNA, 2'-F pyrimidines) [SEQ ID NO:19]
- activity [1]: 94 % of SEQ 4 inhibition

Binder: GGCGAGGAGUAGCCGGAAAGAAGGCGGCGCC (ssRNA, 2'-F pyrimidines) [SEQ ID NO:28]
- activity [1]: 71 % of SEQ 4 inhibition

Binder: GACGAGGAGUAGCCGGAAAGAAGGCGGCGUC (ssRNA, 2'-F pyrimidines) [SEQ ID NO:29]
- activity [1]: 74 % of SEQ 4 inhibition

Binder: GGGCUACGAGGAGUAGCCGGAAAGAAGGCGGCGUAGC (ssRNA, 2'-F pyrimidines) [SEQ ID NO:18]
- activity [1]: 88 % of SEQ 4 inhibition

Binder: GGGAGAGGAGAAGAGGAAGGCACAGGGGUUGGUGUCGGGUGCCAG (ssRNA, 2'-F pyrimidines) [SEQ ID NO:39]
- activity [3]: 52 % of SEQ 5 inhibition
